Measured values taken from publication PMC4267786.

Molecular target: native apolipoprotein D (apoD) from human plasma (human) (UniProt P05090)
Test: ELISA; detergent-free dual-specific ELISA with purified components; capture anti-apoD D544, detection anti-apoB LDL20-biotin; LDL 333 ng/ml (or VLDL 1000 ng/ml, also with detergent) alone or with apoD 100 ng/ml, recombinant apoD 100 ng/ml, HDL2 or HDL3 1000 ng/ml; read as absorbance relative to LDL alone

Chain of UniProt P05090 (P05090 21-189): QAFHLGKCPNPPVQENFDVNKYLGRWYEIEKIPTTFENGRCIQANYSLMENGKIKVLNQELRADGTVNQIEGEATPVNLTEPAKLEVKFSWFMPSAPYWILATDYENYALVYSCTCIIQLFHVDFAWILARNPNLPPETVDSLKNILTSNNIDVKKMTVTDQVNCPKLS

- fold enhancement of LDL binding against LDL alone: 6 fold
Substance: purified low density lipoprotein (LDL) (complex)
